Measurements: US20110263454A1, “Methods of Identifying Functional Characteristics of Promoters, Transcription Modifying Proteins and Transcription Modulating Agents” (Salk Institute for Biological Studies, priority 2008, published 2011)

Tests used:
mCAR promoter = assay: NHR-promoter luciferase screen, mCAR promoter; assay type: cell-based, mouse; conditions: for luciferase activity normalized to lacZ activity and to a control, mCAR: mCAR promoter-luciferase, CV-1 cells, NHR +/- ligand, control = 1.00; for Luc. act., normalized to lacZ / Normalized Luc. act., normalized to control: mCAR promoter, HR/ligand component
Summary of the method: (§1)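 CV-1 cells were co-transfected with 50 ng NHR (homodimer or NHR/RXR heterodimer), 100 ng promoter-luciferase construct and 50 ng LacZ. Luciferase was normalized to LacZ and to a no-NHR/no-ligand control.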

mUCP2 promoter = assay: NHR-promoter luciferase screen, mUCP2 promoter; assay type: cell-based, mouse; conditions: for Luc. act., normalized to lacZ / Normalized Luc. act., normalized to control: mUCP2 promoter reporter, co-transfected HR, with or without its ligand; for Normalized Luc. act., normalized to control: relative to control; for luciferase activity normalized to lacZ activity and to a control, mUCP2: mUCP2 promoter-luciferase, CV-1 cells, NHR +/- ligand, control = 1.00
Summary of the method: as §1

mDio2 promoter = assay: NHR-promoter luciferase screen, mDio2 promoter; assay type: cell-based, mouse; conditions: for Luc. act., normalized to lacZ / Normalized Luc. act., normalized to control: Dio2, HR component without or with its ligand; for mDio2 promoter reporter activity: transcription factor +/- ligand, control = 1.00
Summary of the method: as §1

hIFNg promoter = assay: NHR-promoter luciferase screen, hIFNg promoter; assay type: cell-based, human; conditions: for Luc. act., normalized to lacZ / Normalized Luc. act., normalized to control: IFNg promoter, HR component without or with ligand; for hIFNg promoter reporter activity: transcription factor +/- ligand, control = 1.00
Summary of the method: as §1

mABCA1 promoter = assay: NHR-promoter luciferase screen, mABCA1 promoter; assay type: cell-based, mouse; conditions: for Luc. act., normalized to lacZ / Normalized Luc. act., normalized to control: ABCA1 promoter, hormone receptor with or without its ligand; for Normalized Luc. act., normalized to control: relative to control; for mABCA1 promoter reporter activity: transcription factor +/- ligand, control = 1.00
Summary of the method: as §1

hPPARg2 promoter = assay: NHR-promoter luciferase screen, hPPARg2 promoter; assay type: cell-based, human; conditions: for Luc. act., normalized to lacZ / Normalized Luc. act., normalized to control: PPARG2 promoter, hormone receptor with or without its ligand; for Normalized Luc. act., normalized to control: relative to control; for Results of assays of transcription factor (+/- ligand) with hPPARg2: Table 6d, luciferase activity relative to control (control = 1.00)
Summary of the method: as §1

| Molecule | luciferase activity normalized to lacZ activity and to a control, mCAR (mCAR promoter) | Luc. act., normalized to lacZ (mCAR promoter) | Normalized Luc. act., normalized to control (mCAR promoter) | Luc. act., normalized to lacZ (mUCP2 promoter) | Normalized Luc. act., normalized to control (mUCP2 promoter) | luciferase activity normalized to lacZ activity and to a control, mUCP2 (mUCP2 promoter) | Luc. act., normalized to lacZ (mDio2 promoter) | Normalized Luc. act., normalized to control (mDio2 promoter) | mDio2 promoter reporter activity (mDio2 promoter) | Luc. act., normalized to lacZ (hIFNg promoter) | Normalized Luc. act., normalized to control (hIFNg promoter) | hIFNg promoter reporter activity (hIFNg promoter) | Luc. act., normalized to lacZ (mABCA1 promoter) | Normalized Luc. act., normalized to control (mABCA1 promoter) | mABCA1 promoter reporter activity (mABCA1 promoter) | Luc. act., normalized to lacZ (hPPARg2 promoter) | Normalized Luc. act., normalized to control (hPPARg2 promoter) | Results of assays of transcription factor (+/- ligand) with hPPARg2 (hPPARg2 promoter) |
| --- | --- | --- | --- | --- | --- | --- | --- | --- | --- | --- | --- | --- | --- | --- | --- | --- | --- | --- |
| Erb: Estrogen Receptor β (NR3A2, ERb), cDNA driver (protein, UniProt Q92731 1-530, looked up) Estrogen receptor beta: MDIKNSPSSLNSPSSYNCSQSILPLEHGSIYIPSSYVDSHHEYPAMTFYSPAVMNYSIPSNVTNLEGGPGRQTTSPNVLWPTPGHLSPLVVHRQLSHLYAEPQKSPWCEARSLEHTLPVNRETLKRKVSGNRCASPVTGPGSKRDAHFCAVCSDYASGYHYGVWSCEGCKAFFKRSIQGHNDYICPATNQCTIDKNRRKSCQACRLRKCYEVGMVKCGSRRERCGYRLVRRQRSADEQLHCAGKAKRSGGHAPRVRELLLDALSPEQLVLTLLEAEPPHVLISRPSAPFTEASMMMSLTKLADKELVHMISWAKKIPGFVELSLFDQVRLLESCWMEVLMMGLMWRSIDHPGKLIFAPDLVLDRDEGKCVEGILEIFDMLLATTSRFRELKLQHKEYLCVKAMILLNSSMYPLVTATQDADSSRKLAHLLNAVTDALVWVIAKSGISSQQQSMRLANLLMLLSHVRHASNKGMEHLLNMKCKNVVPVYDLLLEMLNAHVLRGCKSSITGSECSPAEDSKSKEGSQNPQSQ | 1.18 | 44.8 | 1.2 | 114.4 | 1.0 | 1.04 | 19.9 | 1.3 | 1.27 | 22.0 | 1.4 | 1.39 | 12.4 | 2.2 | 2.21 | 2.3 | 1.1 | 1.13 |
| CTF2: COUP-TF2 (NR2F2), cDNA driver (protein, UniProt P24468 1-414, looked up) COUP transcription factor 2: MAMVVSTWRDPQDEVPGSQGSQASQAPPVPGPPPGAPHTPQTPGQGGPASTPAQTAAGGQGGPGGPGSDKQQQQQHIECVVCGDKSSGKHYGQFTCEGCKSFFKRSVRRNLSYTCRANRNCPIDQHHRNQCQYCRLKKCLKVGMRREAVQRGRMPPTQPTHGQFALTNGDPLNCHSYLSGYISLLLRAEPYPTSRFGSQCMQPNNIMGIENICELAARMLFSAVEWARNIPFFPDLQITDQVALLRLTWSELFVLNAAQCSMPLHVAPLLAAAGLHASPMSADRVVAFMDHIRIFQEQVEKLKALHVDSAEYSCLKAIVLFTSDACGLSDVAHVESLQEKSQCALEEYVRSQYPNQPTRFGKLLLRLPSLRTVSSSVIEQLFFVRLVGKTPIETLIRDMLLSGSSFNWPYMAIQ | 0.51 | 19.3 | 0.5 | 90.4 | 0.8 | 0.82 | 18.8 | 1.2 | 1.20 | 35.0 | 2.2 | 2.20 | 4.7 | 0.8 | 0.84 | 1.5 | 0.8 | 0.76 |
| CTF1: COUP-TF1 (NR2F1), cDNA driver (protein, UniProt P10589 1-423, looked up) COUP transcription factor 1: MAMVVSSWRDPQDDVAGGNPGGPNPAAQAARGGGGGAGEQQQQAGSGAPHTPQTPGQPGAPATPGTAGDKGQGPPGSGQSQQHIECVVCGDKSSGKHYGQFTCEGCKSFFKRSVRRNLTYTCRANRNCPIDQHHRNQCQYCRLKKCLKVGMRREAVQRGRMPPTQPNPGQYALTNGDPLNGHCYLSGYISLLLRAEPYPTSRYGSQCMQPNNIMGIENICELAARLLFSAVEWARNIPFFPDLQITDQVSLLRLTWSELFVLNAAQCSMPLHVAPLLAAAGLHASPMSADRVVAFMDHIRIFQEQVEKLKALHVDSAEYSCLKAIVLFTSDACGLSDAAHIESLQEKSQCALEEYVRSQYPNQPSRFGKLLLRLPSLRTVSSSVIEQLFFVRLVGKTPIETLIRDMLLSGSSFNWPYMSIQCS | 0.31 | 11.8 | 0.3 | 67.1 | 0.6 | 0.61 | 15.7 | 1.0 | 1.00 | 31.8 | 2.0 | 2.00 | 5.5 | 1.0 | 0.99 | 1.4 | 0.7 | 0.71 |
| ERR3: Estrogen Related Receptor γ (NR3B3, ERRg), cDNA driver (protein, UniProt P62508 1-458, looked up) Estrogen-related receptor …: MDSVELCLPESFSLHYEEELLCRMSNKDRHIDSSCSSFIKTEPSSPASLTDSVNHHSPGGSSDASGSYSSTMNGHQNGLDSPPLYPSAPILGGSGPVRKLYDDCSSTIVEDPQTKCEYMLNSMPKRLCLVCGDIASGYHYGVASCEACKAFFKRTIQGNIEYSCPATNECEITKRRRKSCQACRFMKCLKVGMLKEGVRLDRVRGGRQKYKRRIDAENSPYLNPQLVQPAKKPYNKIVSHLLVAEPEKIYAMPDPTVPDSDIKALTTLCDLADRELVVIIGWAKHIPGFSTLSLADQMSLLQSAWMEILILGVVYRSLSFEDELVYADDYIMDEDQSKLAGLLDLNNAILQLVKKYKSMKLEKEEFVTLKAIALANSDSMHIEDVEAVQKLQDVLHEALQDYEAGQHMEDPRRAGKMLMTLPLLRQTSTKAVQHFYNIKLEGKVPMHKLFLEMLEAKV | 2.87 | 109.5 | 2.9 | 193.4 | 1.8 | 1.76 | 85.6 | 5.4 | 5.45 | 27.9 | 1.8 | 1.75 | 11.4 | 2.0 | 2.04 | 2.1 | 1.0 | 1.04 |
| ERR2: Estrogen Related Receptor β (NR3B2, ERRb), cDNA driver (protein, UniProt O95718 1-433, looked up) Steroid hormone receptor ERR2: MSSDDRHLGSSCGSFIKTEPSSPSSGIDALSHHSPSGSSDASGGFGLALGTHANGLDSPPMFAGAGLGGTPCRKSYEDCASGIMEDSAIKCEYMLNAIPKRLCLVCGDIASGYHYGVASCEACKAFFKRTIQGNIEYSCPATNECEITKRRRKSCQACRFMKCLKVGMLKEGVRLDRVRGGRQKYKRRLDSESSPYLSLQISPPAKKPLTKIVSYLLVAEPDKLYAMPPPGMPEGDIKALTTLCDLADRELVVIIGWAKHIPGFSSLSLGDQMSLLQSAWMEILILGIVYRSLPYDDKLVYAEDYIMDEEHSRLAGLLELYRAILQLVRRYKKLKVEKEEFVTLKALALANSDSMYIEDLEAVQKLQDLLHEALQDYELSQRHEEPWRTGKLLLTLPLLRQTAAKAVQHFYSVKLQGKVPMHKLFLEMLEAKV | 0.99 | 37.8 | 1.0 | 185.1 | 1.7 | 1.68 | 39.5 | 2.5 | 2.52 | 58.9 | 3.7 | 3.70 | 33.0 | 5.9 | 5.88 | 3.2 | 1.6 | 1.59 |
